# Bridge positions count the residues as written; N and C are the ends. Square brackets hold non-standard residues; d marks the D form. Ends that are not written are not given here. 2Nal = N[C@@H](Cc1ccc2ccccc2c1)C(=O)O; d2Nal = N[C@H](Cc1ccc2ccccc2c1)C(=O)O; Bta = N[C@@H](Cc1csc2ccccc12)C(=O)O; Nle = CCCC[C@H](N)C(=O)O; βAla = NCCC(=O)O
# B1: c[Hydantoin(C(O)-(Asp-His))-D-2-Nal-Arg-Trp-Lys]-NH2 (peptide)
# peptide: DH[d2Nal]RWK-NH2
# modifications: lactam 1-6; also: hydantoin ring: N-terminal N of Asp1 and backbone N of His2 bridged by one C(O), bridge at N via C(O), other end not in the chain
# B2: Hydantoin(C(O)-(Arg-Gly))-c(Cys-Glu-His-D-Phe-Arg-Trp-Cys)-NH2 (peptide)
# peptide: RGCEH[dF]RWC-NH2
# modifications: disulfide 3-9; also: hydantoin ring from C(O) with Arg1-Gly2
# B3: Hydantoin(C(O)-(Gly-Gly))-c(Cys-Glu-His-D-Phe-Arg-Trp-Cys)-NH2 (peptide)
# peptide: GGCEH[dF]RWC-NH2
# modifications: disulfide 3-9; also: hydantoin ring from C(O) with Gly1-Gly2
# B4: Hydantoin(C(O)-(Gly-Arg))-c(Cys-Glu-His-D-Phe-Arg-Trp-Cys)-NH2 (peptide)
# peptide: GRCEH[dF]RWC-NH2
# modifications: disulfide 3-9; also: hydantoin ring from C(O) with Gly1-Arg2
# B5: Ac-c(Cys-Glu-His-D-2-Nal-Arg-2-Nal-Ala-Cys)-Pro-Pro-Arg-Asp-β-[…]NH2 (peptide)
# peptide: Ac-CEH[d2Nal]R[2Nal]ACPPRD[βAla]RRRRRQRRR-NH2
# modifications: disulfide 1-8
# SMILES: CC(=O)N[C@H]1CSSC[C@@H](C(=O)N2CCC[C@H]2C(=O)N2CCC[C@H]2C(=O)N[C@@H](CCCNC(=N)N)C(=O)N[C@@H](CC(=O)O)C(=O)NCCC(=O)N[C@@H](CCCNC(=N)N)C(=O)N[C@@H](CCCNC(=N)N)C(=O)N[C@@H](CCCNC(=N)N)C(=O)N[C@@H](CCCNC(=N)N)C(=O)N[C@@H](CCCNC(=N)N)C(=O)N[C@@H](CCC(N)=O)C(=O)N[C@@H](CCCNC(=N)N)C(=O)N[C@@H](CCCNC(=N)N)C(=O)N[C@@H](CCCNC(=N)N)C(N)=O)NC(=O)[C@H](C)NC(=O)[C@H](Cc2ccc3ccccc3c2)NC(=O)[C@H](CCCNC(=N)N)NC(=O)[C@@H](Cc2ccc3ccccc3c2)NC(=O)[C@H](Cc2c[nH]cn2)NC(=O)[C@H](CCC(=O)O)NC1=O
# B6: Ac-c(Cys-Glu-His-D-2-Nal-Arg-Bal-Ala-Cys)-Pro-Pro-Lys-Asp-β-[…]NH2 (peptide)
# peptide: Ac-CEH[d2Nal]R[Bta]ACPPKD[βAla]RRKRRQRRR-NH2
# modifications: disulfide 1-8
# B7: Hydantoin(C(O)-(Arg-Gly))-c(Cys-D-Ala-His-D-2-Nal-Arg-Trp-Cys)-NH2 (peptide)
# peptide: RGC[dA]H[d2Nal]RWC-NH2
# modifications: disulfide 3-9; also: N-terminal hydantoin: C(O) bridges Arg1 N-alpha and Gly2 N, bridge at N via C(O), other end not in the chain
# B8: Hydantoin(C(O)-(Nle-Gly))-c(Cys-Glu-His-D-Phe-Arg-Trp-Cys)-NH2 (peptide)
# peptide: [Nle]GCEH[dF]RWC-NH2
# modifications: disulfide 3-9; also: N-terminal hydantoin: C(O) bridges X1 N-terminal N and G2 backbone N, bridge at N via C(O), other end not in the chain
# B9: Ac-c(Cys-Glu-His-D-2-Nal-Arg-2-Nal-Ala-Cys)-Pro-Pro-Lys-Asp-β-[…]NH2 (peptide)
# peptide: Ac-CEH[d2Nal]R[2Nal]ACPPKD[βAla]RRRRRQRRR-NH2
# modifications: disulfide 1-8
# B10: Ac-c(Cys-Glu-His-D-2-Nal-Arg-2-Nal-Ala-Cys)-Pro-Pro-Lys-Asp-β-[…]NH2 (peptide)
# peptide: Ac-CEH[d2Nal]R[2Nal]ACPPKD[βAla]GRKRRRQRRR-NH2
# modifications: disulfide 1-8
# B11: Ac-Nle-c(Asp-His-D-2-Nal-Arg-Trp-Ala-Lys)-NH2 (peptide)
# peptide: Ac-[Nle]DH[d2Nal]RWAK-NH2
# modifications: lactam 2-8
# Molecular target: T1, human melanocortin receptor subtype 1 (hMC1-R) (human, UniProt Q01726 1-317)
# T1 construct: whole, on cells; membranes of CHO-K1 cells
# T1 sequence (Q01726 whole entry): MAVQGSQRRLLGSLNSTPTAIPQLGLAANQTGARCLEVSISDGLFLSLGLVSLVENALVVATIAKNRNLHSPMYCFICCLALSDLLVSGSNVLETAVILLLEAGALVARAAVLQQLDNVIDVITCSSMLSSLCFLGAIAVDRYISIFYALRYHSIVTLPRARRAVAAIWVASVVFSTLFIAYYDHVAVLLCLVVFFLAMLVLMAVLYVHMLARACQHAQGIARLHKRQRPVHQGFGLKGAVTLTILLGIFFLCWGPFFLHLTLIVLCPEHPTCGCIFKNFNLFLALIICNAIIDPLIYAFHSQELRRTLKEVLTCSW
# Assay: [125I]-NDP-α-MSH competition, membranes
# Description: (§1) Cellular membranes used for the in vitro receptor binding assays were obtained from transgenic CHO-K1 cells stably expressing hMC-R receptor subtypes 1, 3, 4 or 5. […] The pellets were resuspended in the same buffer and centrifuged at 50,000 g for 10 minutes at approximately 4° C. The washed pellets containing the cellular membranes were stored at approximately −80° C.
# (§2) Competitive inhibition of [¹²⁵I](Tyr²)-(Nle⁴-D-Phe⁷)α-MSH ([¹²⁵I]-NDP-α-MSH, Amersham Biosciences®) binding was carried out in polypropylene 96 well plates. Cell membranes (1-10 μg protein/well) prepared as described above were incubated in 50 mM Tris-HCl at pH 7.4 containing 0.2% bovine serum albumin (BSA), 5 mM MgCl₂, 1 mM CaCl₂ and 0.1 mg/mL bacitracin, with increasing concentrations of the test compound and 0.1-0.3 nM […] for approximately 90-120 minutes at approximately 37° C. Bound [¹²⁵I]-NDP-α-MSH ligand was separated from free [¹²⁵I]-NDP-α-MSH by filtration through GF/C glass fiber filter plates (Unifilter®; Packard) presoaked with 0.1% (w/v) polyethylenimine (PEI), using a Packard Filtermate® harvester. Filters were washed three times with 50 mM Tris-HCl at pH 7.4 at a temperature of approximately 0-4° C. and then assayed for radioactivity using a Packard Topcount® scintillation counter. Binding data were analyzed by computer-assisted non-linear regression analysis (XL fit; IDBS).
row,Binder,Ki
1,B1,200 nM
2,B2,8.59 nM
3,B3,11.9 nM
4,B4,5.68 nM
5,B5,2.63 nM
6,B6,3 nM
7,B7,11.9 nM
8,B8,14.3 nM
9,B9,2.48 nM
10,B10,5.66 nM

# Molecular target: T2, human melanocortin receptor subtype 4 (hMC4-R) (human, UniProt P32245 1-332)
# T2 construct: whole, on cells; membranes of CHO-K1 cells
# T2 sequence (P32245 whole entry): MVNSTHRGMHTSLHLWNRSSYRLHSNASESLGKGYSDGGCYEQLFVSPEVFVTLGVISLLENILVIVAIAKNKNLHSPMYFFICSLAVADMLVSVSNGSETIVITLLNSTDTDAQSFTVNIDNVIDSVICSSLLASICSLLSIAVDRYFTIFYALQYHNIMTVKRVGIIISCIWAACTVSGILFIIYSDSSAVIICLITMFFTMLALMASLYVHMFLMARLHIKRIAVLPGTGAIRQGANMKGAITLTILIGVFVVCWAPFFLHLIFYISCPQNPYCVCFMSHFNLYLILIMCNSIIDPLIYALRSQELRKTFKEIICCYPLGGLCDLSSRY
# Assay: [125I]-NDP-α-MSH competition, membranes
# Description: as §1, §2
row,Binder,Ki
1,B2,2.44 nM
2,B4,2.44 nM
3,B5,0.0737 nM
4,B6,0.442 nM
5,B7,0.195 nM
6,B10,0.446 nM

# Molecular target: T3, human melanocortin receptor subtype 5 (hMC5-R) (human, UniProt P33032 1-325)
# T3 construct: whole, on cells; membranes of CHO-K1 cells
# T3 sequence (P33032 whole entry): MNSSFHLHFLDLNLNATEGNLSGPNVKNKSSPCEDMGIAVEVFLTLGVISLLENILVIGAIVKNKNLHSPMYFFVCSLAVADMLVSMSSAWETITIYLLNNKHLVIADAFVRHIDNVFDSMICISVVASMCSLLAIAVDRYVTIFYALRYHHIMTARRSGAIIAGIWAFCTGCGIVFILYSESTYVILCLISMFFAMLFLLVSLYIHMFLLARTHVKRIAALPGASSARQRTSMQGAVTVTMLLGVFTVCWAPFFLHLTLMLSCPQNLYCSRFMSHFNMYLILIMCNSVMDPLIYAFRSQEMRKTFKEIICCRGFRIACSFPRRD
# Assay: [125I]-NDP-α-MSH competition, membranes
# Description: as §1, §2
row,Binder,Ki
1,B2,7760 nM
2,B3,73.9 nM
3,B4,4220 nM
4,B5,11.6 nM
5,B6,15.5 nM
6,B8,67.8 nM
7,B9,9.17 nM
8,B10,6.23 nM

# Molecular target: T4, hMC1-R (human, UniProt Q01726 1-317)
# T4 construct: whole, on cells; Assayed as membranes of CHO-K1 cells expressing the receptor; also called hMC-R receptor subtype 1; melanocyte-specific receptor (MC1-R)
# T4 sequence (Q01726 whole entry): as the sequence (Q01726 whole entry) above
# Assay: competition with [125I]-NDP-α-MSH, CHO-K1 membranes
# Description: as §1, §2
row,Binder,Ki
1,B11,1.17 nM

# — patent US20120135923A1 (IPSEN PHARMA S A S, published 2012)
